Data from the supplement of paper PMC10126150.
± gives the standard deviation of the averaged measurements.
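Further: ATP exposure 15 min at 22 °C before imaging.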

These sequences were tested on ATP (assay: switch fluorescence ratio, 500 uM ATP over buffer (Cy3 cluster intensity, sum of 5 cycles each) (fold (ratio)); higher = stronger signal-on switching upon ATP binding; sequences stand for … in TCGTCGGCAGCGTCAGATGTGTATAAGAGACAGTTTTTTTTTTTTTTTTTTTTTTTTT…TC). Settings: aptamer strand: ATP DNA aptamer (quencher-CACCTGGGGGAGTATTGCGGAGGAAGG + anchor), 100 nM annealed; ATP concentration: 500 uM.
In short: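 Values give the fluorescence ratio for each switch-domain sequence, averaged from per-cluster ratios of summed target-cycle to summed buffer-cycle Cy3 intensity. The Cy3-labelled switching-strand clusters sat on a modified Illumina MiSeq flow-cell, were annealed to 100 nM quencher-labelled ATP aptamer, and were imaged in selection buffer, then after 15 min with 500 uM ATP at 22 °C. Five cycles ran with NaOH stripping and re-annealing between them, and clusters outside 100-1000 RFU were excluded.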
With TTTGCACGTT the switch fluorescence ratio was 1.03 ± 0.037.
Sequence GGGGGTGGGT has a switch fluorescence ratio of 1 ± 0.021.
With CATAGTTTTT the switch fluorescence ratio was 1.02 ± 0.025.
Work on TAATCGCTAA yielded a switch fluorescence ratio of 1.13 ± 0.14.
TACCTTTGGG showed a switch fluorescence ratio of 1.02 ± 0.032.
Sequence CGGCAAGTGC has a switch fluorescence ratio of 2.19 ± 1.
ATTAGGGGAG showed a switch fluorescence ratio of 0.972 ± 0.0028.
Sequence CTTGACGGTC has a switch fluorescence ratio of 1.11 ± 0.1.
With TTGTAGTCGG the switch fluorescence ratio was 1 ± 0.053.
GTTTAATCCG was tested, and the switch fluorescence ratio was 0.975 ± 0.013.
With TCATTGGGAC the switch fluorescence ratio was 1.06 ± 0.028.
With TTTGAAGTTT the switch fluorescence ratio was 1 ± 0.018.
TATGTGTAAC was tested, and the switch fluorescence ratio was 0.978 ± 0.02.
TCCTGTTCTG showed a switch fluorescence ratio of 1.02 ± 0.041.
Work on TCCGGGTCTG yielded a switch fluorescence ratio of 1.03 ± 0.072.
TTGAAAGTTC showed a switch fluorescence ratio of 1 ± 0.077.
For TCAGGGTTGA, the switch fluorescence ratio was 1.03 ± 0.044.
TTTCTTCAGC was tested, and the switch fluorescence ratio was 1.21 ± 0.19.
For CCAAGCAGGG, the switch fluorescence ratio was 1.66 ± 0.059.
GGCATTGGCA gave a switch fluorescence ratio of 0.995 ± 0.041.
With TCATAGTTGT the switch fluorescence ratio was 1.01 ± 0.051.
Sequence CTTGGGGAAT has a switch fluorescence ratio of 1.13 ± 0.24.
GTTTCGTATA was tested, and the switch fluorescence ratio was 0.997 ± 0.044.
For ATCTAGTACC, the switch fluorescence ratio was 0.999 ± 0.046.
Work on TGTTTTAAGC yielded a switch fluorescence ratio of 1.03 ± 0.022.
TTCATCGTCT showed a switch fluorescence ratio of 1.01 ± 0.042.
For GGTGATACGC, the switch fluorescence ratio was 1.001 ± 0.0035.
Work on CGTTTTTGCT yielded a switch fluorescence ratio of 0.961 ± 0.05.
For GAATTTTCGC, the switch fluorescence ratio was 0.995 ± 0.029.
In the case of GGTTGACCCC, the switch fluorescence ratio is reported as 0.978 ± 0.027.
CTACGGGGCG showed a switch fluorescence ratio of 1.01 ± 0.061.
For GTTTGCAAAT, the switch fluorescence ratio was 0.991 ± 0.034.
Work on CCAAGTGCGG yielded a switch fluorescence ratio of 1.01 ± 0.029.
GGAAAACCAG gave a switch fluorescence ratio of 0.982 ± 0.048.
In the case of AATAAAAAGG, the switch fluorescence ratio is reported as 0.991 ± 0.019.
CAGATGGGGA was tested, and the switch fluorescence ratio was 1.012 ± 0.0036.
TCGGGGAATG was tested, and the switch fluorescence ratio was 1.002 ± 0.0032.
Work on GAGGCCGTTG yielded a switch fluorescence ratio of 1.02 ± 0.023.
CGTTGCAAAG was tested, and the switch fluorescence ratio was 1.03 ± 0.022.
AGGGGGGTAT gave a switch fluorescence ratio of 0.993 ± 0.027.
For TTCGTCGGGC, the switch fluorescence ratio was 0.9863 ± 0.0071.
TTGATTGACA gave a switch fluorescence ratio of 1 ± 0.043.
With AAGTACTTGA the switch fluorescence ratio was 1.12 ± 0.052.
TAGGCGTCTG gave a switch fluorescence ratio of 1 ± 0.012.
ATGTAGTTCG gave a switch fluorescence ratio of 0.981 ± 0.03.
In the case of TTTCATGTGG, the switch fluorescence ratio is reported as 0.995 ± 0.044.
Sequence CTGGTGCCGA has a switch fluorescence ratio of 0.985 ± 0.015.
In the case of ACTCAGCTGG, the switch fluorescence ratio is reported as 1.074 ± 0.0069.
TGCGGGTGTG showed a switch fluorescence ratio of 1.03 ± 0.021.
With GTTCGGGGTT the switch fluorescence ratio was 1.014 ± 0.0016.
TTTTGATCAT was tested, and the switch fluorescence ratio was 0.98 ± 0.013.
Work on AAGGTATGC yielded a switch fluorescence ratio of 1.01 ± 0.048.
GGGGATACCT showed a switch fluorescence ratio of 1.04 ± 0.023.
CCAGAGGTAA gave a switch fluorescence ratio of 1.04 ± 0.027.
Work on GGTCGCCCAG yielded a switch fluorescence ratio of 1.01 ± 0.035.
AAAGATAATT showed a switch fluorescence ratio of 0.982 ± 0.018.
With ACTCATGTTG the switch fluorescence ratio was 0.98166 ± 0.00011.
TTCTTTTACT was tested, and the switch fluorescence ratio was 1.01 ± 0.023.
Sequence TCGGGTATTT has a switch fluorescence ratio of 0.998 ± 0.021.
TATAGTCTCG gave a switch fluorescence ratio of 1.01 ± 0.019.
TTTTGGGCCA gave a switch fluorescence ratio of 1.04 ± 0.018.
Sequence GCAATTGATG has a switch fluorescence ratio of 1.04 ± 0.017.
Work on GCGAGGTGGT yielded a switch fluorescence ratio of 1.001 ± 0.0076.
TAGATCAAG was tested, and the switch fluorescence ratio was 1.04 ± 0.028.
With CTGTAGGGAC the switch fluorescence ratio was 1.18 ± 0.025.
Work on AATTGTTTGT yielded a switch fluorescence ratio of 0.998 ± 0.016.
TGGGTATGT gave a switch fluorescence ratio of 1.03 ± 0.0087.
Sequence CAAGTGAGGC has a switch fluorescence ratio of 0.987 ± 0.075.
Work on CGGGATAGGG yielded a switch fluorescence ratio of 0.977 ± 0.026.
Work on GTTTAAACTT yielded a switch fluorescence ratio of 0.996 ± 0.039.
For TAAGTGAGGG, the switch fluorescence ratio was 0.981 ± 0.018.
TTTTAAGACG showed a switch fluorescence ratio of 0.979 ± 0.069.
For AAAAGGTTAA, the switch fluorescence ratio was 0.968 ± 0.019.
For TGGGGGTGAC, the switch fluorescence ratio was 1.04 ± 0.038.
For CTGCCAGATG, the switch fluorescence ratio was 1.1 ± 0.054.
Work on ACAATAACAC yielded a switch fluorescence ratio of 1.095 ± 0.0093.
With GGCAGAGTTC the switch fluorescence ratio was 0.991 ± 0.013.
For CGGGGGCCGA, the switch fluorescence ratio was 1 ± 0.019.
Sequence TGGAAAAACT has a switch fluorescence ratio of 1.08 ± 0.029.
In the case of TGCTAGTTT, the switch fluorescence ratio is reported as 0.98 ± 0.015.
Work on ATAGTGACGT yielded a switch fluorescence ratio of 0.9826 ± 0.0075.
Work on TATTAAGCGA yielded a switch fluorescence ratio of 1.05 ± 0.037.
AGCTGGGATT gave a switch fluorescence ratio of 0.989 ± 0.054.
Sequence GTTAATGGGT has a switch fluorescence ratio of 0.98 ± 0.047.
With ACCAGCTTTC the switch fluorescence ratio was 1.16 ± 0.015.
TTCAATAGGA was tested, and the switch fluorescence ratio was 1.03 ± 0.045.
TTGGAGGTTA gave a switch fluorescence ratio of 0.973 ± 0.017.
For TTTTGTAAGG, the switch fluorescence ratio was 1.011 ± 0.0043.
Work on TTTCGGAGA yielded a switch fluorescence ratio of 1.11 ± 0.17.
CGGGGAAGTG was tested, and the switch fluorescence ratio was 1 ± 0.019.
With GTATGCGAGG the switch fluorescence ratio was 1 ± 0.08.
Work on AAAAGTGGCA yielded a switch fluorescence ratio of 1.07 ± 0.065.
Work on AAAATCGGCG yielded a switch fluorescence ratio of 1.05 ± 0.073.
For TAATACCAAG, the switch fluorescence ratio was 1 ± 0.029.
TTTGTCCTTA gave a switch fluorescence ratio of 0.9932 ± 0.0017.
AAAGAAAGCG gave a switch fluorescence ratio of 0.997 ± 0.042.
With AATGCGTGTG the switch fluorescence ratio was 1.12 ± 0.15.
For GATAATCTGT, the switch fluorescence ratio was 0.984 ± 0.048.
In the case of ATTTCAGTGT, the switch fluorescence ratio is reported as 1.009 ± 0.0044.
With ACTTTGAGAT the switch fluorescence ratio was 1.03 ± 0.012.
ATCGAAACCC showed a switch fluorescence ratio of 1.05 ± 0.046.
AGTTGAGTTA gave a switch fluorescence ratio of 1 ± 0.011.
Work on GGATTGGGTG yielded a switch fluorescence ratio of 1.04 ± 0.09.
GAGGAGGTTT was tested, and the switch fluorescence ratio was 0.968 ± 0.017.
For GCTGGTGCGA, the switch fluorescence ratio was 1.005 ± 0.0099.
CGGTATTATG gave a switch fluorescence ratio of 0.993 ± 0.022.
TCCTTTAACG gave a switch fluorescence ratio of 1.031 ± 0.0014.
TATTGCGATT was tested, and the switch fluorescence ratio was 0.994 ± 0.018.
TTAAAGGGAT was tested, and the switch fluorescence ratio was 1.1 ± 0.16.
In the case of GGGGCAGGGG, the switch fluorescence ratio is reported as 1.05 ± 0.062.
TGTGGAATAA was tested, and the switch fluorescence ratio was 1.03 ± 0.039.
TCGGAGGGGG gave a switch fluorescence ratio of 1.05 ± 0.2.
With GTTTGAGGGG the switch fluorescence ratio was 0.992 ± 0.012.
For ACTTGAGTTT, the switch fluorescence ratio was 0.988 ± 0.01.
For AGATGTGAGC, the switch fluorescence ratio was 1.03 ± 0.059.
With GGCATGCCGG the switch fluorescence ratio was 1.014 ± 0.0089.
AATCAGCGGT was tested, and the switch fluorescence ratio was 1.02 ± 0.028.
In the case of TTATGTTTGG, the switch fluorescence ratio is reported as 1.02 ± 0.033.
ACACAGGTAT gave a switch fluorescence ratio of 1.12 ± 0.059.
Work on GATTTCCCCG yielded a switch fluorescence ratio of 1.18 ± 0.028.
TGGAAAGGGG gave a switch fluorescence ratio of 1.01 ± 0.014.
CACTTGGTTG was tested, and the switch fluorescence ratio was 0.997 ± 0.051.
In the case of GACGGGTGGC, the switch fluorescence ratio is reported as 1.11 ± 0.02.
For TCATCGCATG, the switch fluorescence ratio was 1.3 ± 0.016.
ATAGCTTGAG showed a switch fluorescence ratio of 1.01 ± 0.04.
AACTGTGTAC showed a switch fluorescence ratio of 1.056 ± 0.0085.
With CCGGTCTATT the switch fluorescence ratio was 1 ± 0.048.
In the case of GGGAAGACCG, the switch fluorescence ratio is reported as 0.9921 ± 0.004.
TGCTGCGCTT was tested, and the switch fluorescence ratio was 1.14 ± 0.081.
ATTGCTATGG gave a switch fluorescence ratio of 1.01 ± 0.016.
Work on GATTGCGGGC yielded a switch fluorescence ratio of 1.03 ± 0.011.
In the case of GTTTTTTTT, the switch fluorescence ratio is reported as 1.05 ± 0.069.
In the case of TTGGGCAGTT, the switch fluorescence ratio is reported as 0.98 ± 0.051.
Work on GACGGCGCTG yielded a switch fluorescence ratio of 0.957 ± 0.049.
TTTGCCGATG gave a switch fluorescence ratio of 0.985 ± 0.013.
TGAAGTTAGT showed a switch fluorescence ratio of 0.975 ± 0.03.
TAGCTTCTGC showed a switch fluorescence ratio of 0.907 ± 0.063.
TTATAATAGT showed a switch fluorescence ratio of 1 ± 0.013.
Work on CAATGTGGCG yielded a switch fluorescence ratio of 0.922 ± 0.038.
TAAGCCGCCT was tested, and the switch fluorescence ratio was 0.998 ± 0.016.
Work on GGGGGGCTAA yielded a switch fluorescence ratio of 0.984 ± 0.021.
TGTAACTGTG gave a switch fluorescence ratio of 1.15 ± 0.028.
For AGTTTCCTTT, the switch fluorescence ratio was 0.978 ± 0.032.
With TGGGGGTTAG the switch fluorescence ratio was 1.01 ± 0.021.
Sequence CGCGTGATTT has a switch fluorescence ratio of 1.06 ± 0.058.
With ACCAGGACTA the switch fluorescence ratio was 1.038 ± 0.0017.
GCGCTAGGTG showed a switch fluorescence ratio of 2.19 ± 0.12.
Work on GTAGTGGGGT yielded a switch fluorescence ratio of 0.987 ± 0.016.
With GATACATTAT the switch fluorescence ratio was 0.998 ± 0.028.
CTAAAGATCG was tested, and the switch fluorescence ratio was 1.03 ± 0.049.
Sequence TTAAAGGGC has a switch fluorescence ratio of 0.973 ± 0.08.
In the case of CGTGATTTA, the switch fluorescence ratio is reported as 0.961 ± 0.017.
TTTAGAGAGT gave a switch fluorescence ratio of 1.01 ± 0.018.
GAGAGAGGTG showed a switch fluorescence ratio of 1.0377 ± 0.00093.
In the case of GGAGGCGTTT, the switch fluorescence ratio is reported as 0.996 ± 0.04.
AGTGTGTGAA was tested, and the switch fluorescence ratio was 0.962 ± 0.01.
GCTTATCTTT gave a switch fluorescence ratio of 0.978 ± 0.051.
